From US20180030119A1 (published 2018)

Key:
[1] = molecular target: T1, RSV F protein as coated in the ELISA of Example 3 (RSV-EIA antigen by the legend of FIG. 6) (RSV, strain ); test: ELISA, serial dilutions of purified AR201 on coated antigen, anti-human IgG-HRP, four parameter fit
T1 construct: also called total RSV antigen (EIA-antigen)

[2] = molecular target: F protein of clinical RSV isolate #1, on virus; test: cell-based or functional assay

B1: AR201 (antibody, V domains shown)
VH: LVQLRESGPGLVKPSQTLSLTCSVSGASINLYDYFWGWIRQAPGRGPEWIGYISGSTYYNPSLKRRATISVDTSKSQFFLELTSVTAADTAVYYCARDVGWGPQYYYGLDVWGQGTTVTVSS
VL: DLVLTQSPGTLSLSPGERATLSCRASHSVQSTSLAWYQQKRGQAPRLLIYGGSSRVTGIPDRFSGSGSGTDFTLTISRLEPEDFAVYYCQQSDRSPPITFGQGTRLEMK
notes: Fully human IgG1, kappa; 1 and 3 are used here; also called KBRV201
EC50 [1]: 0.103 nM | IC50 of neutralisation, infectivity assay on Hep2 cells [2]: 1700 nM
